B1: KCNA1 (parent)
chain: LKASMRELGLLIFFLFIGVILFSS
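Also: lentivirally expressed fusions sorted by FACS into six bins by GFP to DsRed ratio, PSI derived from sequencing read proportions per bin multiplied by bin number.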

The variants in the series derive from B1. Briefly: protein stability index of a GFP-peptide fusion (GPS, HEK-293T) (PSI 1-6); higher = more stable. The settings on record: c terminus: a fixed tail appended.
Regarding LKLSMRELGLLIFFLFIGVILFSS [A3L], the protein stability index stood at 1.77.

Consider LKRSMRELGLLIFFLFIGVILFSS [A3R], for which the protein stability index is 1.74.

With LKDSMRELGLLIFFLFIGVILFSS [A3D], the protein stability index turned out to be 2.46.

Turning to LKGSMRELGLLIFFLFIGVILFSS [A3G], the protein stability index is 1.65.

Take LKVSMRELGLLIFFLFIGVILFSS [A3V]: the protein stability index came to 1.67.

In the case of LKFSMRELGLLIFFLFIGVILFSS [A3F], the protein stability index was 1.72.

Consider LKNSMRELGLLIFFLFIGVILFSS [A3N], for which the protein stability index is 1.86.

With LKSSMRELGLLIFFLFIGVILFSS [A3S], the protein stability index was determined as 2.37.

As to LKISMRELGLLIFFLFIGVILFSS [A3I], the protein stability index amounted to 1.53.

Regarding LKPSMRELGLLIFFLFIGVILFSS [A3P], the protein stability index is 2.17.

As for LKESMRELGLLIFFLFIGVILFSS [A3E], the protein stability index worked out at 1.78.

For the variant LKYSMRELGLLIFFLFIGVILFSS [A3Y], the protein stability index was determined as 2.06.

As to LKWSMRELGLLIFFLFIGVILFSS [A3W], the protein stability index came out at 2.14.

Take LKASSRELGLLIFFLFIGVILFSS [M5S]: the protein stability index amounted to 2.33.

LKASKRELGLLIFFLFIGVILFSS [M5K]: the protein stability index turned out to be 1.94.

For the variant LKASYRELGLLIFFLFIGVILFSS [M5Y], the protein stability index was determined as 2.42.

With LKASRRELGLLIFFLFIGVILFSS [M5R], the protein stability index was determined as 1.76.

As for LKASQRELGLLIFFLFIGVILFSS [M5Q], the protein stability index was found to be 3.33.

LKASIRELGLLIFFLFIGVILFSS [M5I]: the protein stability index worked out at 2.19.

For LKASDRELGLLIFFLFIGVILFSS [M5D], the protein stability index came to 2.29.

Turning to LKASTRELGLLIFFLFIGVILFSS [M5T], the protein stability index came to 2.21.

In the case of LKASWRELGLLIFFLFIGVILFSS [M5W], the protein stability index was found to be 1.78.

As for LKASARELGLLIFFLFIGVILFSS [M5A], the protein stability index amounted to 3.19.

As for LKASFRELGLLIFFLFIGVILFSS [M5F], the protein stability index amounted to 1.98.

With LKASCRELGLLIFFLFIGVILFSS [M5C], the protein stability index is 2.92.

On to LKASVRELGLLIFFLFIGVILFSS [M5V], for which the protein stability index was determined as 2.79.

For the variant LKASPRELGLLIFFLFIGVILFSS [M5P], the protein stability index is 3.22.

For LKASGRELGLLIFFLFIGVILFSS [M5G], the protein stability index is 1.28.

On to LKASNRELGLLIFFLFIGVILFSS [M5N], for which the protein stability index amounted to 2.51.

For LKASLRELGLLIFFLFIGVILFSS [M5L], the protein stability index amounted to 1.82.

For LKASMRELGILIFFLFIGVILFSS [L10I], the protein stability index came to 2.42.

On to LKASMRELGDLIFFLFIGVILFSS [L10D], for which the protein stability index was determined as 3.28.

Take LKASMRELGCLIFFLFIGVILFSS [L10C]: the protein stability index is 2.07.

Turning to LKASMRELGFLIFFLFIGVILFSS [L10F], the protein stability index came to 2.27.

As for LKASMRELGHLIFFLFIGVILFSS [L10H], the protein stability index was determined as 3.23.

In the case of LKASMRELGKLIFFLFIGVILFSS [L10K], the protein stability index was 4.

Consider LKASMRELGGLIFFLFIGVILFSS [L10G], for which the protein stability index was determined as 4.36.

As for LKASMRELGALIFFLFIGVILFSS [L10A], the protein stability index stood at 2.62.

As to LKASMRRLGLLIFFLFIGVILFSS [E7R], the protein stability index is 2.07.

Consider LKASMRILGLLIFFLFIGVILFSS [E7I], for which the protein stability index came out at 2.77.

As for LKASMRKLGLLIFFLFIGVILFSS [E7K], the protein stability index is 2.21.

As for LKASMRVLGLLIFFLFIGVILFSS [E7V], the protein stability index was determined as 1.99.

In the case of LKASMRYLGLLIFFLFIGVILFSS [E7Y], the protein stability index stood at 1.74.

Consider LKASMRFLGLLIFFLFIGVILFSS [E7F], for which the protein stability index is 1.84.

For LKASMRDLGLLIFFLFIGVILFSS [E7D], the protein stability index turned out to be 2.72.

In the case of LKASMRLLGLLIFFLFIGVILFSS [E7L], the protein stability index turned out to be 2.16.

With LKASMRQLGLLIFFLFIGVILFSS [E7Q], the protein stability index is 1.68.

Take LKASMRHLGLLIFFLFIGVILFSS [E7H]: the protein stability index was found to be 2.29.

Take LKASMRALGLLIFFLFIGVILFSS [E7A]: the protein stability index worked out at 2.13.

For the variant LKASMRWLGLLIFFLFIGVILFSS [E7W], the protein stability index was 1.42.

Turning to LKASMRTLGLLIFFLFIGVILFSS [E7T], the protein stability index was 2.01.

For LKASMRMLGLLIFFLFIGVILFSS [E7M], the protein stability index was 1.95.

In the case of LKASMRSLGLLIFFLFIGVILFSS [E7S], the protein stability index amounted to 1.88.

Regarding LKASMRPLGLLIFFLFIGVILFSS [E7P], the protein stability index worked out at 2.28.

For LKASMRNLGLLIFFLFIGVILFSS [E7N], the protein stability index came out at 1.55.

With LKASMRCLGLLIFFLFIGVILFSS [E7C], the protein stability index is 1.65.

For LKASMRGLGLLIFFLFIGVILFSS [E7G], the protein stability index came to 2.13.

Turning to CKASMRELGLLIFFLFIGVILFSS [L1C], the protein stability index came out at 2.3.

Take EKASMRELGLLIFFLFIGVILFSS [L1E]: the protein stability index is 1.93.

Take MKASMRELGLLIFFLFIGVILFSS [L1M]: the protein stability index was 2.27.

RKASMRELGLLIFFLFIGVILFSS [L1R]: the protein stability index is 1.4.

In the case of WKASMRELGLLIFFLFIGVILFSS [L1W], the protein stability index is 1.56.

As to TKASMRELGLLIFFLFIGVILFSS [L1T], the protein stability index amounted to 1.84.

Take IKASMRELGLLIFFLFIGVILFSS [L1I]: the protein stability index worked out at 2.29.

For the variant PKASMRELGLLIFFLFIGVILFSS [L1P], the protein stability index stood at 1.82.

Take AKASMRELGLLIFFLFIGVILFSS [L1A]: the protein stability index was found to be 2.05.

On to HKASMRELGLLIFFLFIGVILFSS [L1H], for which the protein stability index came out at 3.89.

As for DKASMRELGLLIFFLFIGVILFSS [L1D], the protein stability index was determined as 3.09.

With QKASMRELGLLIFFLFIGVILFSS [L1Q], the protein stability index worked out at 2.04.

Consider SKASMRELGLLIFFLFIGVILFSS [L1S], for which the protein stability index came to 1.05.

For FKASMRELGLLIFFLFIGVILFSS [L1F], the protein stability index was 2.12.

Consider NKASMRELGLLIFFLFIGVILFSS [L1N], for which the protein stability index turned out to be 2.84.

GKASMRELGLLIFFLFIGVILFSS [L1G]: the protein stability index was found to be 3.

As for VKASMRELGLLIFFLFIGVILFSS [L1V], the protein stability index was determined as 1.88.

For the variant KKASMRELGLLIFFLFIGVILFSS [L1K], the protein stability index is 1.58.

With YKASMRELGLLIFFLFIGVILFSS [L1Y], the protein stability index was found to be 2.76.

As for LKASMRERGLLIFFLFIGVILFSS [L8R], the protein stability index was 2.8.

Take LKASMREMGLLIFFLFIGVILFSS [L8M]: the protein stability index came out at 2.26.

For the variant LKASMRETGLLIFFLFIGVILFSS [L8T], the protein stability index was 2.48.

For LKASMREKGLLIFFLFIGVILFSS [L8K], the protein stability index is 2.58.

In the case of LKASMREWGLLIFFLFIGVILFSS [L8W], the protein stability index worked out at 2.85.

Take LKASMRECGLLIFFLFIGVILFSS [L8C]: the protein stability index stood at 2.28.

With LKASMREVGLLIFFLFIGVILFSS [L8V], the protein stability index stood at 2.42.

Consider LKASMREEGLLIFFLFIGVILFSS [L8E], for which the protein stability index was 4.

For LKASMREQGLLIFFLFIGVILFSS [L8Q], the protein stability index was 2.55.

With LKASMREPGLLIFFLFIGVILFSS [L8P], the protein stability index was 3.22.

For the variant LKASMREDGLLIFFLFIGVILFSS [L8D], the protein stability index was found to be 2.32.

As for LKASMREFGLLIFFLFIGVILFSS [L8F], the protein stability index stood at 2.39.

As for LKASMREIGLLIFFLFIGVILFSS [L8I], the protein stability index stood at 2.27.

For LKASMREYGLLIFFLFIGVILFSS [L8Y], the protein stability index was found to be 2.58.

In the case of LKASMREAGLLIFFLFIGVILFSS [L8A], the protein stability index came out at 2.58.

With LKASMREHGLLIFFLFIGVILFSS [L8H], the protein stability index is 2.1.

For LKASMREGGLLIFFLFIGVILFSS [L8G], the protein stability index worked out at 1.65.

In the case of LKASMRESGLLIFFLFIGVILFSS [L8S], the protein stability index worked out at 2.08.

These data come from the supplement of paper PMC10567573.
